# Legend:
# β-cas = assay: SPR; homotypic: protein immobilised on CM5 or CM3 chip (~800-1000 RU), the same protein injected at increasing concentrations; BIAcore T200; 20 mM sodium phosphate buffer, pH 7.4; two-state model, one-state model for α-Syn and Chymo
# γ-globulin = assay: as above
Substance,Kd (β-cas),Kd (γ-globulin)
β-cas (natural protein),< 500 nM,
γ-globulin (natural protein),,< 500 nM

# From article PMC10550955
